{"source": "patent US12427210B2", "about": "“Compounds comprising a fibroblast activation protein ligand and use thereof” (priority 2019, dated 2025)", "biological_target": "T1, DPP3 (Homo sapiens (Human)) (UniProt Q9NY33)", "T1 sequence": "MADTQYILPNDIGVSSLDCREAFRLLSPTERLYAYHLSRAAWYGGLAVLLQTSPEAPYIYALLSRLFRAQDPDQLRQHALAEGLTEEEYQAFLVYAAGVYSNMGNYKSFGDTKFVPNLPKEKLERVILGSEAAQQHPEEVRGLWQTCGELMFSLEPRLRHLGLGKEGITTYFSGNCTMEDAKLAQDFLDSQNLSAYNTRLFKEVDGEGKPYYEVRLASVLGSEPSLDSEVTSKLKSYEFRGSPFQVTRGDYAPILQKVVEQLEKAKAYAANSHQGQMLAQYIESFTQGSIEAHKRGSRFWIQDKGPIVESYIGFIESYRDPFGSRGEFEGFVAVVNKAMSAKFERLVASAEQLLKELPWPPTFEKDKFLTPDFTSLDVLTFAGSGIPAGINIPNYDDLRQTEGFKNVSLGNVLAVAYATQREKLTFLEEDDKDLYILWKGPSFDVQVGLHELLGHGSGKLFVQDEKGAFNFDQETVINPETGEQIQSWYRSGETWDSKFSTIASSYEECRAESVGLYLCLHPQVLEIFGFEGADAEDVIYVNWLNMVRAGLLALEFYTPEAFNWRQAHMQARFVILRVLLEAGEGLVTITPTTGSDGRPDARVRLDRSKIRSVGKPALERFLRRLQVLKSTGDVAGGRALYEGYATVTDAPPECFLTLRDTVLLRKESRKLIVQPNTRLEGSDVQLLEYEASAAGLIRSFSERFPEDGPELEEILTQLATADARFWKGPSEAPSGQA", "data": [{"substance": "Hex-[Cys(tMeBn(DOTA-AET))-Pro-Pro-Thr-Gln-Phe-Cys]-OH (3BP-3554) (peptide)", "values": [{"measurement": "Percentage inhibition (%) (% inhibition at 10 µM)", "result": -1}]}]}
